How the values were obtained:
[1] = biological target: T1, RBD of the WH1 (ancestral) SARS-CoV-2 spike protein (Severe acute respiratory syndrome …, UniProt P0DTC2); assay: ELISA; details: both partners purified
T1 construct: also called RBD from the ancestral variant; WH1 RBD

[2] = biological target: T2, B.1.1.529 (BA.1) S1 + S2 Trimer-His Recombinant Protein (SARS-CoV-2 Omicron B.1.1.529 (BA.1), strain); assay: cryo-EM structure; details: both partners purified
T2 construct: also called Omicron BA.1 trimeric spike; BA.1 spike

Binder	binding result [1]	stoichiometry N [2] [Fab per spike trimer]
17T2 mAb (human recombinant monoclonal IgG1) (antibody, V domains shown) VH: QVQLVQSGPEVKKPGTSVKVSCKAPVFTFSISAVQWVRQARGQRLEWIGWIVVGSGNTNYAQNFQERVTITTDMSTGTVYMELSGLRSEDTAMYYCAAPYCNRTTCYDGFDLWGQGTMVTVSS VL: EIVLTQSPGTLSLSPGERATLSCRASQSISSNYLAWYQQKPGQAPRLLIYGASSRATGIPDRFSGSGSGTDFTLSINRLEPEDFAMYYCQHYGGLSRWTFGQGTKVEIK	binds	–
17T2 Fab fragment (Fab, V domains shown, also called Fab 17T2) VH: QVQLVQSGPEVKKPGTSVKVSCKAPVFTFSISAVQWVRQARGQRLEWIGWIVVGSGNTNYAQNFQERVTITTDMSTGTVYMELSGLRSEDTAMYYCAAPYCNRTTCYDGFDLWGQGTMVTVSS VL: EIVLTQSPGTLSLSPGERATLSCRASQSISSNYLAWYQQKPGQAPRLLIYGASSRATGIPDRFSGSGSGTDFTLSINRLEPEDFAMYYCQHYGGLSRWTFGQGTKVEIK	–	3

Reference: doi:10.1101/2023.01.20.524748, “A Novel Monoclonal Antibody Targeting a Large Surface of the Receptor Binding Motif Shows Pan-neutralizing SARS-CoV-2 Activity Including BQ.1.1 Variant” (bioRxiv, 2023)
